Experimental findings from patent publication US20100310509A1 (published 2010) are described below.

The target of assay [1] is T1, soluble human LIFR (leukemia inhibitory factor receptor) (human, UniProt P42702 45-833).
T1 construct: extracellular domain; Bought; also called soluble LIFR
T1 sequence (looked up): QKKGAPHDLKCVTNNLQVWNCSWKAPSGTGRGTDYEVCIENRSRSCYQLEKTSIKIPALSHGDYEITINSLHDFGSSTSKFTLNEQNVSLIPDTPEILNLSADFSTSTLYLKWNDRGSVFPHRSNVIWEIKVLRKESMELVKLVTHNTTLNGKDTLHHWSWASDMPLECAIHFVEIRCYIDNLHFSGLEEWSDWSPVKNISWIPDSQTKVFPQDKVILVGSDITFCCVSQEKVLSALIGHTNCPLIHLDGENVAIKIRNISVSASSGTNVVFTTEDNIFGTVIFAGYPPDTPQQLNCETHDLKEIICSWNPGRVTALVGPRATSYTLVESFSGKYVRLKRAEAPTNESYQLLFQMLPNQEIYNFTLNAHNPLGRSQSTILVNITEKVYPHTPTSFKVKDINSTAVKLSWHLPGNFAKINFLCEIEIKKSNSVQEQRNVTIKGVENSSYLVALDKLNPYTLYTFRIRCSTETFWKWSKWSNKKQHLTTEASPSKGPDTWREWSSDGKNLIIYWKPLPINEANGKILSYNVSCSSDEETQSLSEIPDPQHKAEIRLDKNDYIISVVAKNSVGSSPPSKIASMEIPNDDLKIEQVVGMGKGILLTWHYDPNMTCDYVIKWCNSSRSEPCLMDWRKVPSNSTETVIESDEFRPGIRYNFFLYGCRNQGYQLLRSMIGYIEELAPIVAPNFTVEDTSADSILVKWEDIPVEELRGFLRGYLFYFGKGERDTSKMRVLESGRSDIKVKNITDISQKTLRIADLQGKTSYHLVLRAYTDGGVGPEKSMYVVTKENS
The experiment in a line: SPR, ratio of KD values. The procedure:
(§1) A concentration series of soluble LIFR (# 249-LR-050/CF, R&D Systems, Minneapolis, Minn.), soluble OSMR (# 4389-OR-50, R&D Systems, Minneapolis, Minn.) or soluble gp130 (# 228-GP-050/CF, R&D Systems, Minneapolis, Minn.) in running buffer (10 mM HEPES pH 7.4, 150 mM NaCl, 3.4 mM EDTA, 0.005% Tween-20) were injected over both channels at a flow rate of 25 μl/min. Following a dissociation period of 3 minutes, the surfaces were regenerated by injecting 10 mM NaOH for 30 seconds. Rate constants for association (kₐ) and dissociation (kd) rates were derived by global analysis of the response curves fit to a 1:1 kinetic model (Equations 1 and 2) using QDat software (BioLogic Software, Ltd. Knoxville Tenn. and Nomadics, Inc. Stillwater, Okla.) using 1:1 stoichiometry.
(§2) Reducing the size of the BC loop improves OSM's affinity towards LIFR and OSMR. […] To directly measure the binding kinetics of these ligand-receptor interactions, surface plasmon resonance (SPR) was used. The cytokines (LIF, OSM-WT, OSM-M1 and OSM-M2) were immobilized on the sensor chip surface, while recombinant soluble receptors were used as the analytes (FIG. 11).
In general terms: In SPR one partner is held on a chip, and binding of the other changes the refractive index at the surface.

The target in assay [2] is T2, soluble gp130 (R&D Systems # 228-GP-050/CF) (UniProt P40189 23-619, limits assumed).
T2 construct: extracellular domain; Bought
T2 sequence (looked up): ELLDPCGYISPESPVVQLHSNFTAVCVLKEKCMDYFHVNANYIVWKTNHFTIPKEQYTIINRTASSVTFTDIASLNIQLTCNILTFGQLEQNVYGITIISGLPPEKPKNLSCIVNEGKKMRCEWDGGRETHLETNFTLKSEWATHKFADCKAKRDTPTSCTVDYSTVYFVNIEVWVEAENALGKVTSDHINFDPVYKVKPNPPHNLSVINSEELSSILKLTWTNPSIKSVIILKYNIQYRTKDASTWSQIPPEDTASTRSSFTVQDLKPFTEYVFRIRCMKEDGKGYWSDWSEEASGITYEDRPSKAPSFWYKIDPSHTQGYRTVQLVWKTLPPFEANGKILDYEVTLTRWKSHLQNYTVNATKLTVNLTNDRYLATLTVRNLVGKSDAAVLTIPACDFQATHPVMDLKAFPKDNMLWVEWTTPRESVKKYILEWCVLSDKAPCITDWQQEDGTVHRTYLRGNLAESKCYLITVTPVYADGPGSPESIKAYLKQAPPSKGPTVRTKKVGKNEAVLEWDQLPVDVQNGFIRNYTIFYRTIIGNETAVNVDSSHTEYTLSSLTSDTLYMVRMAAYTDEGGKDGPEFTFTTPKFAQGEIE
Description: SPR, ratio of KD values. The procedure: as §1, §2

B1: human leukemia inhibitory factor (LIF) (ligand)
chain: not shown
notes: Purified recombinant protein; also called hLIF
In the case of B1, the “fold higher affinity than towards gp130” value in assay [1] came to 23 fold.

B2: OSM-WT ('AGA' modified human Oncostatin M, referred to as wild-type OSM) (ligand)
chain: AAIGSCSKEYRVLLGQLQKQTDLMQDTSRLLDPYIRIQGLDVPKLREHCRERPGAFPSEETLRGLGRRGFLQTLNATLGCVLHRLADLEQRLPKAQDLERSGLNIEDLEKLQMARPNILGLRNNIYCMAQLLDNSDTAEPTKAGAGASQPPTPTPASDAFQRKLEGCRFLHGYHRFMHSVGRVFSKWGESPN
notes: also called hOSM with AGA modification; not shown: N-terminal FLAG tag left after thrombin removal of GST
For B2, the “fold higher affinity than towards LIFR” value in assay [2] was found to be 2 fold.
